From US20260055205A1 (published 2026)
Like-named read-outs stand apart in the source and are kept apart here.

How the values were obtained:
[1] = target: T1, human PSMA (human, UniProt Q04609 44-750, limits assumed); experiment: binding screen
T1 construct: also called huPSMA; hPSMA

[2] = target: T2, human CD3 epsilon (human, UniProt P07766 23-126, limits assumed); experiment: Octet, crude lysate
T2 construct: also called huCD3e
Source text: To achieve this, Pool 1 was created, which included 74 paTCE molecules, each containing PSMA.5 and one of the 74 CD3.23 mutation variants. Single mutations were chosen based on analyses including CD3.23 PTE score analysis (using internal PTE algorithm v12) and structural analysis. Structural considerations included: possible contact disruption, anticipated steric clashes, side chain charge maintenance and possible pockets filling. Stability and affinity of the individually expressed molecules in the form of crude lysate was evaluated by Octet (ForteBio).

[3] = target: T2, human CD3 epsilon; experiment: Octet, crude lysate; remark: listed apart in the source
Experimental: Pool 2 consisted of paTCE molecules each containing PSMA.262 and one of 64 CD3.23 mutation combination variants. Stability and affinity of the individually expressed molecules in the form of crude lysate was evaluated by Octet. […] The binding of these anti-CD3 molecules (CD3.227, CD3.228, CD3.229 and CD3.230) to human and cynomolgus CD3 was measured by Octet and the Tm was measured by Differential Scanning Fluorimetry. All variants were paired with PSMA.262 except for CD3.23 which was paired with PSMA.5.

T2 sequence (P07766 23-126 limits assumed): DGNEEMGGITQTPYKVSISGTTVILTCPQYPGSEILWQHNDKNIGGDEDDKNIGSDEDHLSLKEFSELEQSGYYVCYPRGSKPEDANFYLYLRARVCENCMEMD
T1 sequence (Q04609 44-750 limits assumed): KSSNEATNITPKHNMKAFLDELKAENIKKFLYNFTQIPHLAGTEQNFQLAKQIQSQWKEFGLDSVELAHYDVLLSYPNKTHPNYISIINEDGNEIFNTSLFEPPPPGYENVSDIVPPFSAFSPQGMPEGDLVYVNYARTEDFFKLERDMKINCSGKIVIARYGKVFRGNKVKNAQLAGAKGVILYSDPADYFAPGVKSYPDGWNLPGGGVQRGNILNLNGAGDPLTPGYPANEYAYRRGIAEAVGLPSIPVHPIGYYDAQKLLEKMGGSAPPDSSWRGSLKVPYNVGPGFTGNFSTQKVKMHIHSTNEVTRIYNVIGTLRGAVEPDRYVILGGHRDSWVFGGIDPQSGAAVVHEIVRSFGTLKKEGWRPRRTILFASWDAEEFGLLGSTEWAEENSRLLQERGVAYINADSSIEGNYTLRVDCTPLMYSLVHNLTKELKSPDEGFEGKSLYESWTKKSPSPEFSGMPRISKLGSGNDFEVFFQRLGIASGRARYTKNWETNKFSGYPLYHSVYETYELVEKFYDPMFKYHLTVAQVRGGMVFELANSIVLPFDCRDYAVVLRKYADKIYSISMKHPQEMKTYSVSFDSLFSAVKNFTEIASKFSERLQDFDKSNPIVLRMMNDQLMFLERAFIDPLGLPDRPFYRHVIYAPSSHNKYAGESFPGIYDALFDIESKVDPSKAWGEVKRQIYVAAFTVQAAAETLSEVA

Binder | Kd [2] | also measured
PSMA.250 (bispecific antibody, V domains shown, TCE with CD3.23; also called AC3461) VH: QVQLVESGGGVVQPGRSLRLSCAASGRTFGIYVMGWYRQAPGKEREFVAAMSWSGSNRKVSDSVKGRFTISRDNSKNTLYLQMNSLRAEDTAVYYCAASNKLYGRTWYDFNESDYWGQGTQVTVSS | – | Kd [1]: 6.2 nM
PSMA.251 (bispecific antibody, V domains shown, TCE with CD3.23; also called AC3462) VH: QVQLVESGGGVVQPGRSLRLSCAASGRTFGIYVMGWYRQAPGKEREFVAAISWSGSNRKVSDSVKGRFTISRDNSKNTLYLQMNSLRAEDTAVYYCAASNKLYGRTWYDFNESDYWGQGTQVTVSS | – | Kd [1]: 5.1 nM
PSMA.252 (bispecific antibody, V domains shown, TCE with CD3.23; also called AC3463) VH: QVQLVESGGGVVQPGRSLRLSCAASGRTFGIYVMGWYRQAPGKEREFVAAMSWSGSNRKVSDSVKGRFTISRDNSKNTLYLQMNSLRAEDTAVYYCAASNRWYGRTWYDFNESDYWGQGTQVTVSS | – | Kd [1]: 15.9 nM
PSMA.255 (bispecific antibody, V domains shown, TCE with CD3.23; also called AC3466) VH: QVQLVESGGGVVQPGRSLRLSCAASGRTFGIYVMGWYRQAPGKEREFVAAISWSGSNRKVSDSVKGRFTISRDNSKNTLYLQMNSLRAEDTAVYYCAASNRYYGRTWYDFNESDYWGQGTQVTVSS | – | Kd [1]: 18.9 nM
PSMA.254 (bispecific antibody, V domains shown, TCE with CD3.23; also called AC3465) VH: QVQLVESGGGVVQPGRSLRLSCAASGRTFGIYVMGWYRQAPGKEREFVAAMSWSGSNRKVSDSVKGRFTISRDNSKNTLYLQMNSLRAEDTAVYYCAASNRYYGRTWYDFNESDYWGQGTQVTVSS | – | Kd [1]: 41 nM
PSMA.253 (bispecific antibody, V domains shown, TCE with CD3.23; also called AC3464) VH: QVQLVESGGGVVQPGRSLRLSCAASGRTFGIYVMGWYRQAPGKEREFVAAISWSGSNRKVSDSVKGRFTISRDNSKNTLYLQMNSLRAEDTAVYYCAASNRWYGRTWYDFNESDYWGQGTQVTVSS | – | Kd [1]: 8.5 nM
CD3.98 (bispecific antibody, V domains shown, paTCE with PSMA.5; also called AC3427; Y79S) VH: EVQLLESGGGIVQPGGSLKLSCAASGFTFNTYAMNWVRQAPGKGLEWVARIRSKYNNYATYYADSVKDRFTISRDDSKNTVSLQMNNLKTEDTAVYYCVRHENFGNSYVSWFAHWGQGTLVTVSS VL: ELVVTQEPSLTVSPGGTVTLTCRSSNGAVTSSNYANWVQQKPGQAPRGLIGGTNKRAPGTPARFSGSLLGGKAALTLSGVQPEDEAVYYCALWYPNLWVFGGGTKLTVL | 9.6 nM | –
CD3.96 (bispecific antibody, V domains shown, paTCE with PSMA.5; also called AC3425; Y79D) VH: EVQLLESGGGIVQPGGSLKLSCAASGFTFNTYAMNWVRQAPGKGLEWVARIRSKYNNYATYYADSVKDRFTISRDDSKNTVDLQMNNLKTEDTAVYYCVRHENFGNSYVSWFAHWGQGTLVTVSS VL: ELVVTQEPSLTVSPGGTVTLTCRSSNGAVTSSNYANWVQQKPGQAPRGLIGGTNKRAPGTPARFSGSLLGGKAALTLSGVQPEDEAVYYCALWYPNLWVFGGGTKLTVL | 9.8 nM | –
CD3.103 (bispecific antibody, V domains shown, paTCE with PSMA.5; also called AC3432; A49G, Y52cG, D65G, N82bS) VH: EVQLLESGGGIVQPGGSLKLSCAASGFTFNTYAMNWVRQAPGKGLEWVGRIRSKYNNGATYYADSVKGRFTISRDDSKNTVYLQMNSLKTEDTAVYYCVRHENFGNSYVSWFAHWGQGTLVTVSS VL: ELVVTQEPSLTVSPGGTVTLTCRSSNGAVTSSNYANWVQQKPGQAPRGLIGGTNKRAPGTPARFSGSLLGGKAALTLSGVQPEDEAVYYCALWYPNLWVFGGGTKLTVL | 11.4 nM | Kd [3]: 13.5 nM
CD3.97 (bispecific antibody, V domains shown, paTCE with PSMA.5; also called AC3426; Y79G) VH: EVQLLESGGGIVQPGGSLKLSCAASGFTFNTYAMNWVRQAPGKGLEWVARIRSKYNNYATYYADSVKDRFTISRDDSKNTVGLQMNNLKTEDTAVYYCVRHENFGNSYVSWFAHWGQGTLVTVSS VL: ELVVTQEPSLTVSPGGTVTLTCRSSNGAVTSSNYANWVQQKPGQAPRGLIGGTNKRAPGTPARFSGSLLGGKAALTLSGVQPEDEAVYYCALWYPNLWVFGGGTKLTVL | 121 nM | –

Second part, led by results:

Kd [2] | Binder | also measured
5.4 nM | CD3.95 (bispecific antibody, V domains shown, paTCE with PSMA.5; also called AC3424; D65G) VH: EVQLLESGGGIVQPGGSLKLSCAASGFTFNTYAMNWVRQAPGKGLEWVARIRSKYNNYATYYADSVKGRFTISRDDSKNTVYLQMNNLKTEDTAVYYCVRHENFGNSYVSWFAHWGQGTLVTVSS VL: ELVVTQEPSLTVSPGGTVTLTCRSSNGAVTSSNYANWVQQKPGQAPRGLIGGTNKRAPGTPARFSGSLLGGKAALTLSGVQPEDEAVYYCALWYPNLWVFGGGTKLTVL | –
5.9 nM | CD3.99 (bispecific antibody, V domains shown, paTCE with PSMA.5; also called AC3428; N82bE) VH: EVQLLESGGGIVQPGGSLKLSCAASGFTFNTYAMNWVRQAPGKGLEWVARIRSKYNNYATYYADSVKDRFTISRDDSKNTVYLQMNELKTEDTAVYYCVRHENFGNSYVSWFAHWGQGTLVTVSS VL: ELVVTQEPSLTVSPGGTVTLTCRSSNGAVTSSNYANWVQQKPGQAPRGLIGGTNKRAPGTPARFSGSLLGGKAALTLSGVQPEDEAVYYCALWYPNLWVFGGGTKLTVL | –
8.9 nM | CD3.110 (bispecific antibody, V domains shown, paTCE with PSMA.5; also called AC3439; L66T) VH: EVQLLESGGGIVQPGGSLKLSCAASGFTFNTYAMNWVRQAPGKGLEWVARIRSKYNNYATYYADSVKDRFTISRDDSKNTVYLQMNNLKTEDTAVYYCVRHENFGNSYVSWFAHWGQGTLVTVSS VL: ELVVTQEPSLTVSPGGTVTLTCRSSNGAVTSSNYANWVQQKPGQAPRGLIGGTNKRAPGTPARFSGSTLGGKAALTLSGVQPEDEAVYYCALWYPNLWVFGGGTKLTVL | –
6.1 nM | CD3.106 (bispecific antibody, V domains shown, paTCE with PSMA.5; also called AC3435; L67D) VH: EVQLLESGGGIVQPGGSLKLSCAASGFTFNTYAMNWVRQAPGKGLEWVARIRSKYNNYATYYADSVKDRFTISRDDSKNTVYLQMNNLKTEDTAVYYCVRHENFGNSYVSWFAHWGQGTLVTVSS VL: ELVVTQEPSLTVSPGGTVTLTCRSSNGAVTSSNYANWVQQKPGQAPRGLIGGTNKRAPGTPARFSGSLDGGKAALTLSGVQPEDEAVYYCALWYPNLWVFGGGTKLTVL | –
5.2 nM | CD3.102 (bispecific antibody, V domains shown, paTCE with PSMA.5; also called AC3431; N82bY) VH: EVQLLESGGGIVQPGGSLKLSCAASGFTFNTYAMNWVRQAPGKGLEWVARIRSKYNNYATYYADSVKDRFTISRDDSKNTVYLQMNYLKTEDTAVYYCVRHENFGNSYVSWFAHWGQGTLVTVSS VL: ELVVTQEPSLTVSPGGTVTLTCRSSNGAVTSSNYANWVQQKPGQAPRGLIGGTNKRAPGTPARFSGSLLGGKAALTLSGVQPEDEAVYYCALWYPNLWVFGGGTKLTVL | –
8.3 nM | CD3.109 (bispecific antibody, V domains shown, paTCE with PSMA.5; also called AC3438; L66N) VH: EVQLLESGGGIVQPGGSLKLSCAASGFTFNTYAMNWVRQAPGKGLEWVARIRSKYNNYATYYADSVKDRFTISRDDSKNTVYLQMNNLKTEDTAVYYCVRHENFGNSYVSWFAHWGQGTLVTVSS VL: ELVVTQEPSLTVSPGGTVTLTCRSSNGAVTSSNYANWVQQKPGQAPRGLIGGTNKRAPGTPARFSGSNLGGKAALTLSGVQPEDEAVYYCALWYPNLWVFGGGTKLTVL | –
7.3 nM | CD3.107 (bispecific antibody, V domains shown, paTCE with PSMA.5; also called AC3436; L66S) VH: EVQLLESGGGIVQPGGSLKLSCAASGFTFNTYAMNWVRQAPGKGLEWVARIRSKYNNYATYYADSVKDRFTISRDDSKNTVYLQMNNLKTEDTAVYYCVRHENFGNSYVSWFAHWGQGTLVTVSS VL: ELVVTQEPSLTVSPGGTVTLTCRSSNGAVTSSNYANWVQQKPGQAPRGLIGGTNKRAPGTPARFSGSSLGGKAALTLSGVQPEDEAVYYCALWYPNLWVFGGGTKLTVL | –
7.1 nM | CD3.100 (bispecific antibody, V domains shown, paTCE with PSMA.5; also called AC3429; N82bQ) VH: EVQLLESGGGIVQPGGSLKLSCAASGFTFNTYAMNWVRQAPGKGLEWVARIRSKYNNYATYYADSVKDRFTISRDDSKNTVYLQMNQLKTEDTAVYYCVRHENFGNSYVSWFAHWGQGTLVTVSS VL: ELVVTQEPSLTVSPGGTVTLTCRSSNGAVTSSNYANWVQQKPGQAPRGLIGGTNKRAPGTPARFSGSLLGGKAALTLSGVQPEDEAVYYCALWYPNLWVFGGGTKLTVL | –
4.6 nM | CD3.104 (bispecific antibody, V domains shown, paTCE with PSMA.5; also called AC3433; L67Q) VH: EVQLLESGGGIVQPGGSLKLSCAASGFTFNTYAMNWVRQAPGKGLEWVARIRSKYNNYATYYADSVKDRFTISRDDSKNTVYLQMNNLKTEDTAVYYCVRHENFGNSYVSWFAHWGQGTLVTVSS VL: ELVVTQEPSLTVSPGGTVTLTCRSSNGAVTSSNYANWVQQKPGQAPRGLIGGTNKRAPGTPARFSGSLQGGKAALTLSGVQPEDEAVYYCALWYPNLWVFGGGTKLTVL | –
4.9 nM | CD3.105 (bispecific antibody, V domains shown, paTCE with PSMA.5; also called AC3434; G68E) VH: EVQLLESGGGIVQPGGSLKLSCAASGFTFNTYAMNWVRQAPGKGLEWVARIRSKYNNYATYYADSVKDRFTISRDDSKNTVYLQMNNLKTEDTAVYYCVRHENFGNSYVSWFAHWGQGTLVTVSS VL: ELVVTQEPSLTVSPGGTVTLTCRSSNGAVTSSNYANWVQQKPGQAPRGLIGGTNKRAPGTPARFSGSLLEGKAALTLSGVQPEDEAVYYCALWYPNLWVFGGGTKLTVL | –
3.2 nM | CD3.108 (bispecific antibody, V domains shown, paTCE with PSMA.5; also called AC3437; L66K) VH: EVQLLESGGGIVQPGGSLKLSCAASGFTFNTYAMNWVRQAPGKGLEWVARIRSKYNNYATYYADSVKDRFTISRDDSKNTVYLQMNNLKTEDTAVYYCVRHENFGNSYVSWFAHWGQGTLVTVSS VL: ELVVTQEPSLTVSPGGTVTLTCRSSNGAVTSSNYANWVQQKPGQAPRGLIGGTNKRAPGTPARFSGSKLGGKAALTLSGVQPEDEAVYYCALWYPNLWVFGGGTKLTVL | –
4.8 nM | CD3.101 (bispecific antibody, V domains shown, paTCE with PSMA.5; also called AC3430; N82bS) VH: EVQLLESGGGIVQPGGSLKLSCAASGFTFNTYAMNWVRQAPGKGLEWVARIRSKYNNYATYYADSVKDRFTISRDDSKNTVYLQMNSLKTEDTAVYYCVRHENFGNSYVSWFAHWGQGTLVTVSS VL: ELVVTQEPSLTVSPGGTVTLTCRSSNGAVTSSNYANWVQQKPGQAPRGLIGGTNKRAPGTPARFSGSLLGGKAALTLSGVQPEDEAVYYCALWYPNLWVFGGGTKLTVL | –
